Sequences and labels used below:
B2: human adrenomedullin (hADM 1-52) (peptide)
peptide: YRQSMNNFQGLRSFGCRFGTCTVQKLAHQIYQFTDKDKDNVAPRSKISPQGY

For experiment [1], the target named is ADM (human or mouse not stated for this entry). The experiment can be described thus: cell-based or functional assay.
Experiment [2] deals with B2. In words: cell-based or functional assay.
Experiment [3] addresses B2. The experiment can be described thus: cell-based or functional assay.
For experiment [4], the target named is B2. In words: SPR (Biacore 2000), antibody captured via anti-mouse Fc, Adrenomedullin in solution. As for the experimental part: Reversible immobilization of the antibodies was performed using an anti-mouse Fc antibody covalently coupled in high density to a CM5 sensor surface according to the manufacturer's instructions (mouse antibody capture kit; GE Healthcare). (Lorenz et al.,” Functional Antibodies Targeting IsaA of Staphylococcus aureus Augment Host Immune Response and Open New Perspectives for Antibacterial Therapy”; Antimicrob Agents Chemother. 2011 January; 55(1): 165-173.)
For orientation: Surface plasmon resonance follows binding to a sensor surface in real time, without labels.

The target of experiment [5] is T1, human recombinant adrenomedullin receptor (CRLR+RAMP3) (human).
T1 chain: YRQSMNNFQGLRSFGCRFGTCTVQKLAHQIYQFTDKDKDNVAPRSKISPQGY
In words: cell-based or functional assay.

Experiment [6] addresses T1, human recombinant adrenomedullin …. In words: cell-based or functional assay.

Where two headings read alike, the source gives them in different places.

In turn, Non specific mouse IgG (antibody) displayed a Maximal inhibition of ADM bioactivity (ADM-Bioassay) (%) in experiment [1] of 0%.

B1: NT-H (antibody, V domains shown)
VH: QVQLQQSGAELMKPGASVKISCKATGYTFSRYWIEWVKQRPGHGLEWIGEILPGSGSTNYNEKFKGKATITADTSSNTAYMQLSSLTSEDSAVYYCTEGYEYDGFDYWGQGTTLTVSS
VL: DVLLSQTPLSLPVSLGDQATISCRSSQSIVYSNGNTYLEWYLQKPGQSPKLLIYRVSNRFSGVPDRFSGSGSGTDFTLKISRVEAEDLGVYYCFQGSHIPYTFGGGTKLEIK
notes: also called NT-H antibody; antibody NT-H
Broadly, the Kd is a measure of binding affinity in units of concentration. For the molecule B1, the “IC50 (read off the curve)” value in experiment [2] was around 2 µg/mL. Besides, the “stability of hADM in human citrate plasma with NT-H against hADM alone” value in experiment [3] amounted to 2.3 fold. The molecule also gave a dissociation constant Kd in experiment [4] of 5.9 nM.
A word on the EC50 (read off the curve): it is the concentration that produces a half-maximal response. As for B2, the “EC50 (read off the curve)” value in experiment [5] is around 1 nM.

B3: mouse adrenomedullin (mADM 1-50) (peptide)
peptide: YRQSMNQGSRSNGCRFGTCTFQKLAHQIYQLTDKDKDGMAPRNKISPQGYNH
Regarding B3, the “EC50 (read off the curve)” value in experiment [6] is around 0.08 nM.

For the origin of these results see patent US20130195874A1 (ADRENOMED, published 2013).
